The record followed here is patent publication US20060104978A1, “Methods and compositions for PDGF-C activation and inhibition” (LUDWIG INSTITUTE FOR CANCER RESEARCH, priority 2003, published 2006).

For one test, the target named is T1, PDGFR-α (Homo sapiens, UniProt P16234).
T1 construct: expressed in transfected cells
In words: PDGFR-α tyrosine phosphorylation in PAE cells stably expressing PDGFR-α. The class given is cell-based. The following applies: conditioned medium from transfected COS-1 cells applied to PAE cells, 120 min on ice. As to the method:
It was verified that the growth factor domain in PDGF-CC released by tPA-mediated proteolysis is an efficient PDGFR-A ligand. Conditioned media from transfected COS-1 cells were applied onto porcine aortic endothelial (PAE) cells with stable expression of PDGFR-α (FIG. 5A).
To understand the structural requirements for receptor-binding and activation of PDGF-CC, the series of truncated mutants of PDGF-CC generated above were analysed for their ability to activate PDGFR-α in PAE cells. Conditioned media containing the truncated mutants of PDGF-CC were applied onto PAE cells, and the activation of the receptors was monitored by induction of receptor tyrosine phosphorylation (FIG. 6D).
To monitor growth factor-induced tyrosine phosphorylation of PDGFR-α, serum-starved PAE cells stably expressing human PDGFR-α were incubated for 120 min on ice with conditioned medium from COS-1 cells transfected with full-length PDGF-C in the absence or presence of tPA. Alternatively, primary wild-type and tPA-deficient fibroblasts were stimulated with 100 ng/ml activated PDGF-CC protein. The cells were lysed as described previously (Li et al, 2000) and PDGFR-α was immunoprecipitated using a specific antiserum (Eriksson et al, 1992). […] Tyrosinephosphorylated receptors were detected by immunoblotting using an antiphosphotyrosine antibody (PY99, Santa Cruz). […]

Test [1] deals with tPA-deficient fibroblasts. In words: WST-1 growth assay of primary fibroblasts in serum-free medium. The class given is cell-based, mouse. The following applies: 50 ng/ml added to serum-free culture medium, 24 hours. As to the method: It was observed that primary fibroblasts derived from tPA-deficient mice grew more slowly in culture than fibroblasts derived from wild-type animals, raising the possibility that activation of latent PDGF-CC by tPA generated autocrine and paracrine growth stimulatory loops for primary fibroblasts in culture. To analyze this effect, isolated wild-type and tPA-deficient fibroblasts were serum-starved overnight, and the growth of the cells during the next 24 hours was monitored using an enzyme-based viability assay (see Example 8, Materials and Methods).
To monitor cell growth, both the cell proliferation reagent WST-1 (Roche) and BrdU (Sigma) were used. A total of 0.4×10^4 (WST-1) or 1×10^4 (BrdU) wild-type and tPA-deficient fibroblasts were seeded in triplicate-hexaplicate, and after attachment they were serum-starved overnight. Serum-starved cells were counted (WST-1 seeding control) and alternatively incubated for 24 hours in serum-free medium supplemented with 1 mg/ml BSA, and 50 μM BrdU in the BrdU experiment, in the absence or presence of 50 ng/ml activated PDGF-CC or tPA protein (#116, American Diagnostica Inc.). Upon counting, WST-1 reagent was added and measured according to the manufacturer's protocol using an ELISA reader. […] Quantification of the BrdU-positive cells was performed by counting all cells along the vertical and horizontal diameters of all wells.
In general terms: Tetrazolium assays rely on reduction of a dye to a coloured formazan, in cell work by metabolically active cells.

The target in the next test is latent PDGF-CC (Homo sapiens, UniProt Q9NRA1). In words: In vitro cleavage of recombinant latent PDGF-CC with purified tPA. The class given is biochemical. On the set-up: His6-tagged recombinant full-length PDGF-CC; made in house; host or cells: Sf9 insect cells, baculovirus. Particulars: 0.2-20 μg/ml tPA, 4 hours at 37° C., CNBr activated fibrinogen. The source says:
A cotransfection assay was established to identify serine proteases able to cleave and activate latent PDGF-CC. Expression plasmids encoding the relevant enzymes and full-length PDGF-C were cotransfected into COS-1 cells, and aliquots of the conditioned media from the transfectants were subjected to SDS-PAGE and immunoblotting using antibodies to the growth factor domain of PDGF-C. […] As a specificity control, the ability of tPA and NT to use full-length PDGF-DD as the substrate in the cotransfection assay was analysed. […] One difference in the latter results, as compared with the results from the cotransfection assay, was that purified tPA generated a second intermediate species of 32 kDa using latent PDGF-CC as the substrate. It is possible that this intermediate is the result of digestion by plasmin contamination in the tPA preparation, since the size of the fragment is similar to that of plasmincleaved PDGF-CC previously reported (Li et al, 2000).
Recombinant latent PDGF-CC and PDGF-DD were digested with human tPA in 100 mM Tris-HCl pH 7.5, 0.1% Tween 20, and 0.1 mg/ml CNBr activated fibrinogen (Sigma) for 4 hours at 37° C. using 0.2-20 μg/ml tPA purified from human melanoma cells (T7776, Sigma). The digestions were analyzed by SDS-PAGE under reducing conditions and immunoblotted using affinity-purified antibodies against PDGF-C and PDGF-D, respectively (see above).

T1 sequence (P16234 24-1089): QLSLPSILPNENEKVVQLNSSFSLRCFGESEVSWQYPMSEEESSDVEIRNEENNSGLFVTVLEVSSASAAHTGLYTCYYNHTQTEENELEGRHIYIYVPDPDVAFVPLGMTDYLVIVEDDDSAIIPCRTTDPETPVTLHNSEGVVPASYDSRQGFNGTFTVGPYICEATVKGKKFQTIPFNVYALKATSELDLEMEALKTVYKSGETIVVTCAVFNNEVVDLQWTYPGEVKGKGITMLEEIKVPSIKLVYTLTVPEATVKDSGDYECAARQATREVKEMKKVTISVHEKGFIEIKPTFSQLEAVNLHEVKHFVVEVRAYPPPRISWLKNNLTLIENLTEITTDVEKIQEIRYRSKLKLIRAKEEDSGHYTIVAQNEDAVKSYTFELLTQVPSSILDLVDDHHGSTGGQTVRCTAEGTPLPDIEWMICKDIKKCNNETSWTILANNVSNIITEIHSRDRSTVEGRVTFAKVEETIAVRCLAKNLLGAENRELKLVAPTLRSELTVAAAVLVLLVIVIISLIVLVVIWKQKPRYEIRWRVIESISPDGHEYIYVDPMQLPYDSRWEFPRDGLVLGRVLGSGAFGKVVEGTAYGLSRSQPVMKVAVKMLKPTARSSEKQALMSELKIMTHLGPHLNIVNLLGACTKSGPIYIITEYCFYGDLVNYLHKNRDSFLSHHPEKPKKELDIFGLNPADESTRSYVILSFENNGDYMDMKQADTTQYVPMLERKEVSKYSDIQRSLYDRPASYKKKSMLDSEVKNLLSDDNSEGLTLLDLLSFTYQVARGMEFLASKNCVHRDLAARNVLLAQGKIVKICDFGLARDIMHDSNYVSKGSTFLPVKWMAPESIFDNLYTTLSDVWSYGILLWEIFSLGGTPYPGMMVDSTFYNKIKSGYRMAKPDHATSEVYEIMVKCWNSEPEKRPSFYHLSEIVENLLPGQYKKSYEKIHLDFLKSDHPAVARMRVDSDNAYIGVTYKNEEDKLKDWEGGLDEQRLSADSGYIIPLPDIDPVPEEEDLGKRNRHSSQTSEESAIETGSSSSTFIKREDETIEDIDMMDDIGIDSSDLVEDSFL
Sequence of latent PDGF-CC (Q9NRA1 23-345): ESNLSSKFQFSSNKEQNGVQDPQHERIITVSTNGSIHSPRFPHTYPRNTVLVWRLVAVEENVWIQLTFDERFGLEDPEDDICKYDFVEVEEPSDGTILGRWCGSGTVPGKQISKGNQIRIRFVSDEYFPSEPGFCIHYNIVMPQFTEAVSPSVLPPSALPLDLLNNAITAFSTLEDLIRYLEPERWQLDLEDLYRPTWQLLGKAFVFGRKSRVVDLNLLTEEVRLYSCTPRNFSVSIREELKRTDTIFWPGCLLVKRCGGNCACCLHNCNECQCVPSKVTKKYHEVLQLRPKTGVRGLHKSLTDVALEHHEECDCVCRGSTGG

For the substance “tPA: tissue plasminogen activator, secreted serine protease; expressed, purified from human melanoma cells or recombinant”, the “PDGFR-α activation (receptor tyrosine phosphorylation)” value with PDGFR-α is recorded as “failed to induce receptor activation”. The “rescue of growth of tPA-deficient fibroblasts” value in test [1] is “allowed the cells to grow similar to the wild-type fibroblasts”. The “cleavage of recombinant latent PDGF-CC by purified tPA” value in the test with latent PDGF-CC was “PDGF-CC, but not PDGF-DD, is a substrate for tPA”.
